Data as given in publication PMC5943514, “Substrate specificity of human MCPIP1 endoribonuclease” (Scientific Reports, 2018).

Target: T1, MCPIP1 D141N (Regnase-1), full length (Homo sapiens, UniProt Q5D1E8 1-599, D141N)
T1 sequence: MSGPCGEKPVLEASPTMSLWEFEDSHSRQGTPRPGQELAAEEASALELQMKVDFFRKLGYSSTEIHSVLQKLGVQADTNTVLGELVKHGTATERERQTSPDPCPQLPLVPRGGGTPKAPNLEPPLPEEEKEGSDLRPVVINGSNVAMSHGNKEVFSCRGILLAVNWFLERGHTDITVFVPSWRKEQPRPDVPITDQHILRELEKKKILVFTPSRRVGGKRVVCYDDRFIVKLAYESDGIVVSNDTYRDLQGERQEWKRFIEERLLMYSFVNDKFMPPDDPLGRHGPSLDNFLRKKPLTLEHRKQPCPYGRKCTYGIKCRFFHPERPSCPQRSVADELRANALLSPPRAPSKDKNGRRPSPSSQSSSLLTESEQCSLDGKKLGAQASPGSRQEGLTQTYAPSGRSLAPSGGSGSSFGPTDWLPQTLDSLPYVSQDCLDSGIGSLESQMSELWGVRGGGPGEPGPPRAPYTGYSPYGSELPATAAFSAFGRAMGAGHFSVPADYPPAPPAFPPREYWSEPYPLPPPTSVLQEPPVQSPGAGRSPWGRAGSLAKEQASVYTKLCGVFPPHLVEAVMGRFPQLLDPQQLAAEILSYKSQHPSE
Test: EMSA; apparent Kd, Hill analysis; 1% agarose, TBE; 25 mM Tris-HCl pH 7.9, 150 mM NaCl, 5% glycerol, 2.5 mM MgCl2, 1 mM DTT, 0.5 mM EDTA, 0.05 mM ZnCl2, 25 C; oligo 2 nM (full length) or 20 nM (PIN, PIN-ZF)
Conditions: protein: recombinant; tags: none stated (purified by ion exchange); chain copies: 2; label: 5' 6-FAM; hairpin

UGUUGUUCUCUACGAAGAACUGACA (structured_RNA) [mIL-6 82-106 5'FAM]
Kd: 394 ± 45 nM
